In patent US11680110B2, “Three-dimensional structure-based humanization method” (Hoffmann-La Roche Inc., dated 2023):

T1: recombinant human IL-17 (human, UniProt Q16552)
T1 sequence: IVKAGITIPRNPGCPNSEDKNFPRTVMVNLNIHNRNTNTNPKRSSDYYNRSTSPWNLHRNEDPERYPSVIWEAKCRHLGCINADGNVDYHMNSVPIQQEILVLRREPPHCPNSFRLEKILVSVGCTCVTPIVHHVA

B1: murine anti-IL17 antibody (antibody, V domains shown)
VH: QVQLKESGPGLVAPSQSLSITCTVSGFSLDSYGVHWVRQPPGKGLEWLVVIWSDGTTTYNSALKSRLSITKDNSKSQVFLKMNSLQTDDTAIYYCARDTHYRLYYYAMDYWGQGTSVTVSS
VL: DVVMTQTPLSLPVSLGDQASISCRSSQSLVHSNGDTYFHWYLQKPGQSPKLLIYKVSNRFSGVPDRFSGSGSGTDFTLKINRVEAEDLGVYFCSQTTHAPFTFGSGTKLEIK
B2: chimeric anti-IL17 antibody (antibody, V domains shown)
VH: B1 VH
VL: B1 VL

Key:
[1] = target: T1, recombinant human IL-17
[2] = target: T1, recombinant human IL-17; assay: SPR, BIAcore 3000, antibody captured, antigen injected
[3] = target: T1, recombinant human IL-17; assay: SPR, BIAcore 3000, antibody captured by anti-human IgG, antigen injected

| Binder | Neutralization in NHDF, IL-6 IC50 [1] | Kd [2] | Kd [3] |
| --- | --- | --- | --- |
| B1 | 210 pM | 50 pM | – |
| B2 | – | – | 30 pM |
